# Assays:
# [1] = system: dorsal root ganglia-OPC co-cultures; experiment: In vitro myelination of axons in dorsal root ganglia-OPC co-cultures with IL-33; format: cell-based; details: DRG-OPC co-cultures, rat rIL-33 10 ng/ml, 16 days
# Protocol: FIG. 9 provides images showing the myelination of dorsal root ganglion axons. The arrows point to the longer segments of myelinated internodes in cultures with added IL-33 (20×).
# In preliminary studies, in vitro myelination of axons in the presence of IL-33 using dorsal root ganglia-OPC co-cultures was examined. Dorsal root ganglions (DRGs) were dissected from postnatal day 2 (P2) rat pups and cultured by established methods. Once the OPCs attached to the plates, they were treated with rat rIL-33 (10 ng/ml) for 16 days. At the end of the experiment, cells were stained with tubulin β for axons and MBP for myelin forming oligodendrocytes. Quantitation of myelin in axons was done using image analysis and the amount of myelin around the axons was determined. […] When compared to vehicle treated controls, there was an 18% increase in MBP in cultures treated with IL-33.
# MBP in OPCs = experiment: Western blot of MBP expression in OPC cultures treated with IL-33; format: cell-based, rat; details: OPCs treated with IL-33
# From the text: (§1) FIG. 7A provides Western blot analysis of MPB expression in OPC cultures treated with IL-33. FIG. 7B provides qRT-PCR analysis showing the gene expression of transcription elements that bind to the MPB promoter region and major myelin genes treated with IL-33. T3 is the thyroid hormone internal positive control.
# (§2) The importance of IL-33 as an inducer of a number of myelin genes has been shown. […] The expression of MBP, myelin oligodendrocyte glycoprotein (Mog), and proteolipoprotien (Plp) along with mRNAs of Purα, Sox10, and Sp-1 in OPCs cultured with IL-33 was quantified. Purα, Sox10, and Sp-1 are transcription elements that bind to the promoter region of MBP to initiate MBP gene expression.
# OPCs = experiment: Maturation of OPCs cultured with IL-33 (O4 and MBP expressing cells); format: cell-based, rat
# From the text: The graphs to the right show the quantitation of O4 and MBP.
# The formation of CNS myelin is dependent on the differentiation and maturation of OPCs. The process of maturation is well recognized both in vitro and in vivo. Immature OPCs express the receptor for platelet derived growth factor (PDGFR) and also express proteins that are recognized by antibody A2B5, anti O4, and anti Olig2 antibodies. As oligodendrocytes mature they lose their reactivity to A2B5, PDGFR, and Olig 2 and they begin to express myelin proteins including MBP. The degree of maturation can be assessed by determining the percentage of cells expressing early lineage markers such as O4 and the later markers such as MBP. The expression of O4 and MBP in OPCs cultured for 4 and 14 days in the presence or absence of IL-33 was determined. […] The increase seen with IL-33 was similar to that seen with AA.
# [2] = system: MBP, Mog, Plp, Purα, Sox10, Sp-1 in OPCs; experiment: qRT-PCR of myelin genes and MBP promoter transcription elements in OPCs cultured with IL-33; format: cell-based, rat
# From the text: as §1, §2
molecule,measurement,setting,value
"IL-33: recombinant cytokine IL-33 (rat rIL-33) added exogenously to OPC cultures (protein, UniProt Q66H70 1-264, looked up) Interleukin-33: MRPRMKYSNSKISPAKCDSTSGRALVPPCKITRSQQKTKDICHVYCMRLRSGLTIRKETCYFGKEPAKRYSLKSGSKHEGRLSTCLPDSRKRSLLGSIQAFAASVDTLSIQGTSLLTESCALSTYNDQSVSFVLENGCYVINVEDCGKNQEKDKVLLRYYESSFPAQSGDGVDGKKLMVNMSPIKDTDIWLNANDKDYSVELQKGDVSPPDQAFFVLHKKSSDFVSFECKNLPGTYIGVKDNQLALVEENDESCNNIMFKLSKM",increase in MBP vs vehicle treated controls,[1],18%
same,induction of MBP,MBP in OPCs,26%
same,increase in O4 expressing cells vs normal growth medium,"OPCs; OPCs cultured with IL-33, 4 days",2.3 fold
same,formation of mature oligodendrocytes expressing MBP,"OPCs; OPCs cultured with IL-33, 14 days",increased formation of mature oligodendrocytes
same,induced expression of MBP,[2],4.5 fold
same,induced expression of Mog,[2],3.8 fold
same,induced expression of PLP,[2],2.3 fold
same,induced expression of Purα,[2],2.1 fold
same,induced expression of Sox10,[2],3.9 fold
same,induced expression of Sp1,[2],2.2 fold

# Source: patent US12083134B2, “Anacardic acid for neural repair” (Vanderbilt University, priority 2018, dated 2024)
